Laboratory results reported in the supplement of paper PMC7125110.
± gives the standard error. Variants at the floor of the assay were thinned out.

B1: glmS ribozyme (parent)
chain: AUAAAAGCGCCAGAACUACAGAAAUGUAGUUGACGAGGAGGAGGUUUAUCGAAUUUUCGGCGGAUGCCUCCAAA

Variants of: B1
Experiment: self-cleavage kobs at 10000 uM GlcN6P; higher = faster cleavage; RNA array
Conditions: with glucosamine-6-phosphate
Summary of the method: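 Tiles bearing barcoded ribozyme variants, transcribed in situ by E. coli RNA polymerase on sequenced MiSeq chips, were imaged over ~14 h at 37 °C using a hybridised Cy3 probe. Glucosamine-6-phosphate was supplied at 40 μM to 10 mM in HEPES/KCl/Mg(OAc)2 buffer. kobs came from one- or two-exponential decay fits to normalised per-tile medians, and weighted Michaelis–Menten fits then provided kcat and KM.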

Variant | self-cleavage kobs at 10000 uM GlcN6P
A15U U30G G60C | < 1e-05 s⁻¹
C8U U46G G66C C70G | 9.08e-05 ± 2.6e-05 s⁻¹
G7U A14U G29C | < 1e-05 s⁻¹
G7U G13C G32A | < 1e-05 s⁻¹
A14U A52U U54C | 0.000114 ± 1.6e-05 s⁻¹
G9A A36U U65C | < 1e-05 s⁻¹
A12U U54C G59U A64C | < 1e-05 s⁻¹
A15C G29C G59A U65A | < 1e-05 s⁻¹
C8U C34G C58G G60U C67U | < 1e-05 s⁻¹
C11G A15U C50A G51U C70A | 4.33e-05 ± 1.2e-05 s⁻¹
C11A U30C A39C G59U | 0.000272 ± 6.2e-05 s⁻¹
G7C C11A G13A | < 1e-05 s⁻¹
C8A C58U U69G | 0.0005 ± 8.7e-05 s⁻¹
A14C G32U U65G | 0.000125 ± 3e-05 s⁻¹
G7U C8U A12G C70G | 4.36e-05 ± 1.9e-05 s⁻¹
G13C G35C U49C | < 1e-05 s⁻¹
C16A G35C A39U | < 1e-05 s⁻¹
G13C U47G C70U | 5.23e-05 ± 1.4e-05 s⁻¹
A15C U46C G62U | < 1e-05 s⁻¹
A12U A15C C16U | 0.0012 ± 0.00023 s⁻¹
A15U U55G G63U C67U | < 1e-05 s⁻¹
G29A C34G C67A | < 1e-05 s⁻¹
A15U G60U G62C | < 1e-05 s⁻¹
A12U G29C A33U | 4.02e-05 ± 1.2e-05 s⁻¹

Variant | self-cleavage kobs at 10000 uM GlcN6P
C8G C10G G40U A52C | < 1e-05 s⁻¹
A6G U47A | 0.000437 ± 0.00013 s⁻¹
A15G A42U U69A | 0.00624 ± 0.0018 s⁻¹
G7A U57C | < 1e-05 s⁻¹
G9C C50U A64U | < 1e-05 s⁻¹
C16U U46C C58G C61G | 5.92e-05 ± 2.1e-05 s⁻¹
G13A G38A A64G | < 1e-05 s⁻¹
C11U G66U C71G | < 1e-05 s⁻¹
A12C C16G G37A C67A C71U | < 1e-05 s⁻¹
C10A U31C G38U A48C | < 1e-05 s⁻¹
A15U U56G C71A | 0.000528 ± 0.00016 s⁻¹
C10U A15G G35A | < 1e-05 s⁻¹
C16A A33C A42C C71U | < 1e-05 s⁻¹
A12G G13U G40A | 4.65e-05 ± 1.4e-05 s⁻¹
A12C G37A U47G | 0.000241 ± 4.8e-05 s⁻¹
C11G U30A G59C | 0.000168 ± 3.9e-05 s⁻¹
A12G G21U A53U U69A | 0.0001 ± 2.2e-05 s⁻¹
G13U G37A G40U | < 1e-05 s⁻¹
A14U A39C G66U | 0.000116 ± 2.2e-05 s⁻¹
G7A G40C A42U G43U U57C | < 1e-05 s⁻¹
C10U C34A G41U | < 1e-05 s⁻¹
C8U G13U A15U C16U G32C A48U | < 1e-05 s⁻¹
A6G C11U C34A | < 1e-05 s⁻¹
G7A A64G C67U C70G | < 1e-05 s⁻¹

Variant | self-cleavage kobs at 10000 uM GlcN6P
G9A C10G U69G | 0.000596 ± 0.00021 s⁻¹
C11G G32U A39C | < 1e-05 s⁻¹
G13U A39U A53U C67G | 4.97e-05 ± 1.8e-05 s⁻¹
A12G U54C | 0.001 ± 0.00011 s⁻¹
C8U C16A A39C A42C G59C C67A C70U | < 1e-05 s⁻¹
C16U G35C C58A | < 1e-05 s⁻¹
C16A A36C U57A C61U C67U | < 1e-05 s⁻¹
C16A U31G C68U | 4.49e-05 ± 1.5e-05 s⁻¹
C8G A14C G38A U56A G59U | < 1e-05 s⁻¹
A12C U46C G51U U54A | < 1e-05 s⁻¹
G13A A42C G60C | < 1e-05 s⁻¹
A15U G44U A64U | < 1e-05 s⁻¹
A12C A15U C58G | 0.00016 ± 3.5e-05 s⁻¹
A12G U65G C70U | 0.000133 ± 1.7e-05 s⁻¹
A12C G41A C67A | 7.76e-05 ± 2.9e-05 s⁻¹
A6U A36U A42C U65C | < 1e-05 s⁻¹
C16U A39C A53G | 0.00494 ± 0.0011 s⁻¹
A6C U31G G41C U54A U55C C68U | < 1e-05 s⁻¹
A12C A14G U47A A53G C58U | 3.29e-05 ± 1.6e-05 s⁻¹
C8A G40C G59A G63A | < 1e-05 s⁻¹
G9A A12G A36C G38C | < 1e-05 s⁻¹
C11U A12G C50U | < 1e-05 s⁻¹
G9U A15U G37U | < 1e-05 s⁻¹
C11A U47G | 5.18e-05 ± 1.5e-05 s⁻¹

Variant | self-cleavage kobs at 10000 uM GlcN6P
C16A U31A C70U | 0.00113 ± 0.00026 s⁻¹
A14U A15C G32A A42U A53U C70U | < 1e-05 s⁻¹
A12G C61A | < 1e-05 s⁻¹
C16U U31G C70A | 8.19e-05 ± 1.7e-05 s⁻¹
G13C A15C U49C | < 1e-05 s⁻¹
A12U A48C U49C C50A C68U | < 1e-05 s⁻¹
C11G U30C A42C U55G C61A G62A C71G | < 1e-05 s⁻¹
A14U U30A G40C | 5.69e-05 ± 1.4e-05 s⁻¹
A15U C50A C67U | < 1e-05 s⁻¹
A6G A14U A36G C50A | < 1e-05 s⁻¹
A15G U31C G38C G63A | < 1e-05 s⁻¹
A12U A14C U31C | 0.00145 ± 0.00047 s⁻¹
C16G G32U C58U | 0.000423 ± 0.00013 s⁻¹
A15C A33G A48C A64U | < 1e-05 s⁻¹
A20C G44U | 0.000286 ± 8.9e-05 s⁻¹
C11U G38U A42G | < 1e-05 s⁻¹
G9C A36C G43A U47A | < 1e-05 s⁻¹
A12U C16A U65C | 5.77e-05 ± 1.6e-05 s⁻¹
A15G U30G U46C | 0.000407 ± 0.0001 s⁻¹
G7U G29U G37U | < 1e-05 s⁻¹
A12G U30A C34U U45G C67A | < 1e-05 s⁻¹
G13U G40U C61U C68U | < 1e-05 s⁻¹
A6U U55A C70U | 0.000254 ± 6.5e-05 s⁻¹
C11U C34G G38A | < 1e-05 s⁻¹

Variant | self-cleavage kobs at 10000 uM GlcN6P
C11G A15G G40C U46A G62A A64U | < 1e-05 s⁻¹
A12C G51A G59U G66U | < 1e-05 s⁻¹
C11U A36C G43U | < 1e-05 s⁻¹
G9C G63A C68G | < 1e-05 s⁻¹
G9A A53G G66U | < 1e-05 s⁻¹
G9U A14U | < 1e-05 s⁻¹
C11A U47C U55A G59U | 0.00336 ± 0.00065 s⁻¹
A15G G41C U47G C61U U65A | < 1e-05 s⁻¹
G21A A33U | 0.00012 ± 2.2e-05 s⁻¹
C10U C58U G59C | < 1e-05 s⁻¹
A15G A52G G66A C68U | 0.000149 ± 2.8e-05 s⁻¹
C10U C34U A48C | < 1e-05 s⁻¹
C10A U46A A48G | < 1e-05 s⁻¹
A15G U30G G40U | 0.000863 ± 0.00017 s⁻¹
C11G G13C G44A | < 1e-05 s⁻¹
G13U C34U G37U A53U | < 1e-05 s⁻¹
A15C U30G C68G | 0.000435 ± 0.00015 s⁻¹
G7A C8U U56C | < 1e-05 s⁻¹
G9U U31G U54A | < 1e-05 s⁻¹
C8A U56C C70G | < 1e-05 s⁻¹
A14C G60U C70A | < 1e-05 s⁻¹
A14C U65C C71U | 4.99e-05 ± 2.1e-05 s⁻¹
A23C C71A | 0.00399 ± 0.00084 s⁻¹
A12U C16A C58A | 7.98e-05 ± 1.6e-05 s⁻¹

Variant | self-cleavage kobs at 10000 uM GlcN6P
C8U U47G G63A C70A | 0.000324 ± 0.00012 s⁻¹
G9A A33U G51A A52U U55A | < 1e-05 s⁻¹
G13A G35A G60U C70A | < 1e-05 s⁻¹
G29A A52G C67G | 5.89e-05 ± 1.1e-05 s⁻¹
A15G A39G U55A C58U | 2.43e-05 ± 1.1e-05 s⁻¹
G13A G44C C67A | 9.29e-05 ± 1.9e-05 s⁻¹
C11U G29U C70A | 8.25e-05 ± 2.8e-05 s⁻¹
A6C G37A C68A | < 1e-05 s⁻¹
G13A A22U U45G | 7.33e-05 ± 1e-05 s⁻¹
C16G G43U C68U | 0.0002 ± 4.7e-05 s⁻¹
C16G A33U G35U G63U A64C | < 1e-05 s⁻¹
C10G U30A G37C A39U G62A | < 1e-05 s⁻¹
G13U A14C C58G | 7.6e-05 ± 1.7e-05 s⁻¹
C11U C50A G66A | < 1e-05 s⁻¹
A12C G29A A36G | < 1e-05 s⁻¹
C11U A12G A14G G26U | 0.00104 ± 0.00024 s⁻¹
G13A C71A | 0.000168 ± 3.3e-05 s⁻¹
A12U A14U G29A | 0.00021 ± 4.5e-05 s⁻¹
A6G C11A C34U C58U C68G | 0.000295 ± 0.0001 s⁻¹
A6U A15C A48C A64U | < 1e-05 s⁻¹
G13U U55G C67U | 0.0003 ± 6.1e-05 s⁻¹
A6U U54C C71U | 0.000136 ± 2.2e-05 s⁻¹
A15U G32U G66A | 0.000174 ± 4e-05 s⁻¹
C16U U55G C68G | 5.93e-05 ± 1.5e-05 s⁻¹

Variant | self-cleavage kobs at 10000 uM GlcN6P
A14G A15G A33U | 8.09e-05 ± 1.9e-05 s⁻¹
C10A G63U C71U | < 1e-05 s⁻¹
C11A A15C U54G | 5.7e-05 ± 1.8e-05 s⁻¹
A12U G44C A53G | 0.000245 ± 4.7e-05 s⁻¹
C10U A33G C68U | < 1e-05 s⁻¹
G7A G29U G37C | < 1e-05 s⁻¹
C8A A15U G35C | < 1e-05 s⁻¹
A15G U55G C58A | 0.000435 ± 8.3e-05 s⁻¹
C11U G29C C71U | 0.000101 ± 1.9e-05 s⁻¹
G7A C11U C61U U65G C68A | 0.000318 ± 0.0001 s⁻¹
A6G A12U C16U | 5.43e-05 ± 2.1e-05 s⁻¹
A14G G40C G41U | 0.000186 ± 4e-05 s⁻¹
G13C G29U G66A C71U | 3.46e-05 ± 1.2e-05 s⁻¹
A12G G43U G60C | < 1e-05 s⁻¹
A15C C16G U65G | 0.000462 ± 8e-05 s⁻¹
A6U A14G A36U A48U G63U | < 1e-05 s⁻¹
A15U G43A G44C U45G | < 1e-05 s⁻¹
G9A A15C C67A | < 1e-05 s⁻¹
C16G U46C C70U | 0.000325 ± 7.4e-05 s⁻¹
A12G U30G U55G | 5.43e-05 ± 1.3e-05 s⁻¹
A12U G32U U54C | 0.000319 ± 5.4e-05 s⁻¹
A14G C16U A39U | 0.0817 ± 0.036 s⁻¹
A12G G13C G35A | < 1e-05 s⁻¹
